Source: publication PMC4653696 (The Journal of Biological Chemistry, 2015)

Experiments:
[1] = biological target: T1, Cdc11(E294C)-capped, otherwise Cys-less septin hetero-octamer (Cdc11-Cdc12-Cdc3-Cdc10-Cdc10-Cdc3-Cdc12-Cdc11) (S. cerevisiae, UniProt P32458 1-415; P32468 1-407; P32457 1-520; P25342 1-322, C43F | C137A | C138A | E294C | C40A | C278S | C124V | C253V | C279V | C266S, Alexa Fluor 555 maleimide (donor) or Alexa Fluor 647 maleimide (acceptor) on C294 (E294C); 0.7-0.8 dye molecules per subunit); assay: FRET or BRET; 15 nM Cdc11^AF555 octamers assembled into filaments at low salt, titrated with Bni5^AF647 (maximum 500 nM); apparent Kd; conditions: both partners purified
T1 construct: intact CTE (residues 303-415) restored; Cdc12, S. cerevisiae mitotic septin, Cys-less variant; Cdc3, S. cerevisiae mitotic septin, Cys-less variant; Cdc10, S. cerevisiae mitotic septin, Cys-less variant; The same preparation was labelled separately with donor (AF555) or acceptor (AF647); both are written as this one molecule; also called Cdc11^AF555; Cdc11^AF647; source: E. coli NiCo21 (DE3), …

[2] = biological target: T1, Cdc11(E294C)-capped, otherwise Cys-less …; assay: FRET or BRET; 25 nM Cdc11^AF555 octamers assembled into filaments at low salt, titrated with Bni5^AF647 (maximum 500 nM); apparent Kd; conditions: both partners purified
[3] = biological target: T1, Cdc11(E294C)-capped, otherwise Cys-less …; assay: FRET or BRET; 25 nM donor (AF555)-labelled octamers titrated with acceptor (AF647)-labelled octamers, serial dilutions from 100 nM; 45 mM KCl, 50 mM Tris-HCl pH 8.0; room temperature, 1 h equilibration; triplicate; PCA and curve fit; apparent Kd of end-to-end association of rods; conditions: both partners purified
[4] = biological target: T1, Cdc11(E294C)-capped, otherwise Cys-less …; assay: as above; conditions: both partners purified; remark: listed apart in the source
[5] = biological target: T2, Shs1(Δ2–18/Δα0 E344C)-capped, otherwise Cys-less septin hetero-octamer (S. cerevisiae, UniProt Q07657 1-551; P32468 1-407; P32457 1-520; P25342 1-322, Δ2–18 | C29V | C148S | E344C | C40A | C278S | C124V | C253V | C279V | C266S, Alexa Fluor 555 maleimide (donor) on C344 (E344C)); assay: as above; conditions: both partners purified
T2 construct: Cdc12, S. cerevisiae mitotic septin, Cys-less variant; Cdc3, S. cerevisiae mitotic septin, Cys-less variant; Cdc10, S. cerevisiae mitotic septin, Cys-less variant; also called Shs1 Δα0^AF555; Shs1(Δα0) complexes; source: E. coli NiCo21 (DE3), subunits co-expressed, purified (IMAC, chitin-agarose flow-through, SEC), maleimide dye-labelled; not shown: His6, N-terminal, kept; copies: 2 + 2 + 2 + 2
T2 sequence (Q07657 other isoform, or with tags, fused parts or gaps with the stated changes): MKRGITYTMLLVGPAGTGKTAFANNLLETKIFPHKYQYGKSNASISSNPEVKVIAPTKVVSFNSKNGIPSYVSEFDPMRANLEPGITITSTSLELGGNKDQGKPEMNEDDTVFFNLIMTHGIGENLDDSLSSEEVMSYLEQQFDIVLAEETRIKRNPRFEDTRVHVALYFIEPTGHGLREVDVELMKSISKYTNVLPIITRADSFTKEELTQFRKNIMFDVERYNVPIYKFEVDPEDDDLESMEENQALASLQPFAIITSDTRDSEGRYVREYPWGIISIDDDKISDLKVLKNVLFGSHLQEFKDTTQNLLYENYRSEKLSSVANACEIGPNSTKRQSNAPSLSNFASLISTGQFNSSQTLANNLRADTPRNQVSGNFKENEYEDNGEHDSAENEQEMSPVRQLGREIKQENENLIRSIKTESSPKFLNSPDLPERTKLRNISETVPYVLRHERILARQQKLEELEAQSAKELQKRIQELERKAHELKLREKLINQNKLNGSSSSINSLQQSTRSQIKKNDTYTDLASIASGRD

[6] = biological target: T3, Shs1(E344C)-capped, otherwise Cys-less septin hetero-octamer (Shs1-Cdc12-Cdc3-Cdc10-Cdc10-Cdc3-Cdc12-Shs1) (S. cerevisiae, UniProt Q07657 1-551; P32468 1-407; P32457 1-520; P25342 1-322, C29V | C148S | E344C | C40A | C278S | C124V | C253V | C279V | C266S, Alexa Fluor 555 maleimide (donor) or Alexa Fluor 647 maleimide (acceptor) on C344 (E344C)); assay: as above; conditions: both partners purified
T3 construct: Cdc12, S. cerevisiae mitotic septin, Cys-less variant; Cdc3, S. cerevisiae mitotic septin, Cys-less variant; Cdc10, S. cerevisiae mitotic septin, Cys-less variant; Donor- and acceptor-labelled preparations are written as this one molecule; also called Shs1^AF555; Shs1^AF647; source: E. coli NiCo21 (DE3), subunits co-expressed, purified (IMAC, chitin-agarose flow-through, SEC), maleimide …

[7] = biological target: the molecule itself; assay: as above

B1: Bni5 (Bud neck-interacting protein 5), type II myosin-binding protein (natural protein, S. cerevisiae, UniProt P53890 1-448, looked up)
chain: MGLDQDKIKKRLSQIEIDINQMNQMIDENLQLVEPAEDEAVEDNVKDTGVVDAVKVAETALFSGNDGADSNPGDSAQVEEHKTAQVHIPTENEANKSTDDPSQLSVTQPFIAKEQITHTAIAIGDSYNSFVANSAGNEKAKDSCTENKEDGTVNIDQNRGEADVEIIENNDDEWEDEKSDVEEGRVDKGTEENSEIESFKSPMPQNNTLGGENKLDAELVLDKFSSANKDLDIQPQTIVVGGDNEYNHESSRLADQTPHDDNSENCPNRSGGSTPLDSQTKIFIPKKNSKEDGTNINHFNSDGDGQKKMANFETRRPTNPFRVISVSSNSNSRNGSRKSSLNKYDSPVSSPITSASELGSIAKLEKRHDYLSMKCIKLQKEIDYLNKMNAQGSLSMEDGKRLHRAVVKLQEYLDKKTKEKYEVGVLLSRHLRKQIDRGENGQFWIGTK
modifications: Alexa Fluor 647 maleimide on the native cysteines Cys-144, Cys-266 and Cys-375 (2.7 dye molecules per protein)
notes: Bni5, S. cerevisiae; the BNI5 ORF cloned behind His8 and a human rhinovirus 3C protease site in pH3c-LIC; also called Bni5^AF647; acceptor dye-labeled Bni5; source: E. coli NiCo21 (DE3), purified (IMAC, chitin-agarose, SEC), maleimide dye-labelled
- Kd [1]: 222 nM
- Kd [2]: 210 nM

B2: Shs1(E344C ΔCTE)-capped, otherwise Cys-less septin hetero-octamer (complex, S. cerevisiae)
chain 1: MSTASTPPINLFRRKKEHKRGITYTMLLVGPAGTGKTAFANNLLETKIFPHKYQYGKSNASISSNPEVKVIAPTKVVSFNSKNGIPSYVSEFDPMRANLEPGITITSTSLELGGNKDQGKPEMNEDDTVFFNLIMTHGIGENLDDSLSSEEVMSYLEQQFDIVLAEETRIKRNPRFEDTRVHVALYFIEPTGHGLREVDVELMKSISKYTNVLPIITRADSFTKEELTQFRKNIMFDVERYNVPIYKFEVDPEDDDLESMEENQALASLQPFAIITSDTRDSEGRYVREYPWGIISIDDDKISDLKVLKNVLFGSHLQEFKDTTQNLLYENYRSEKLSSVANACEIGP
chain 2: MSAATATAAPVPPPVGISNLPNQRYKIVNEEGGTFTVMLAGESGLGKTTFINTLFQTVLKRADGQQHRQEPIRKTVEIDITRALLEEKHFELRVNVIDTPGFGDNVNNNKAWQPLVDFIDDQHDSYMRQEQQPYRTKKFDLRVHAVLYFIRPTGHGLKPIDIETMKRLSTRANLIPVIAKADTLTAQELQQFKSRIRQVIEAQEIRIFTPPLDADSKEDAKSGSNPDSAAVEHARQLIEAMPFAIVGSEKKFDNGQGTQVVARKYPWGLVEIENDSHSDFRKLRALLLRTYLLDLISTTQEMHYETYRRLRLEGHENTGEGNEDFTLPAIAPARKLSHNPRYKEEENALKKYFTDQVKAEEQRFRQWEQNIVNERIRLNGDLEEIQGKVKKLEEQVKSLQVKKSHLK
chain 3: MSLKEEQVSIKQDPEQEERQHDQFNDVQIKQESQDHDGVDSQYTNGTQNDDSERFEAAESDVKVEPGLGMGITSSQSEKGQVLPDQPEIKFIRRQINGYVGFANLPKQWHRRSIKNGFSFNLLVVGPDGIGKTTLMKTLFNNDDIEANLVKDYEEELANDQEEEEGQGEGHENQSQEQRHKVKIKSYESVIEENGVKLNLNVIDTEGFGDFLNNDQKSWDPIIKEIDSRFDQYLDAENKINRHSINDKRIHAVLYFIEPTGHYLKPLDLKFMQSVYEKVNLIPVIAKSDILTDEEILSFKKTIMNQLIQSNIELFKPPIYSNDDAENSHLSERLFSSLPYAVIGSNDIVENYSGNQVRGRSYPWGVIEVDNDNHSDFNLLKNLLIKQFMEELKERTSKILYENYRSSKLAKLGIKQDNSVFKEFDPISKQQEEKTLHEAKLAKLEIEMKTVFQQKVSEKEKKLQKSETELFARHKEMKEKLTKQLKALEDKKKQLELSINSASPNVNHSPVPTKKKGFLR
chain 4: MDPLSSVQPASYVGFDTITNQIEHRLLKKGFQFNIMVVGQSGLGKSTLINTLFASHLIDSATGDDISALPVTKTTEMKISTHTLVEDRVRLNINVIDTPGFGDFIDNSKAWEPIVKYIKEQHSQYLRKELTAQRERFITDTRVHAILYFLQPNGKELSRLDVEALKRLTEIANVIPVIGKSDTLTLDERTEFRELIQNEFEKYNFKIYPYDSEELTDEELELNRSVRSIIPFAVVGSENEIEINGETFRGRKTRWSAINVEDINQSDFVYLREFLIRTHLQDLIETTSYIHYEGFRARQLIALKENANSRSSAHMSSNAIQR
modifications: Alexa Fluor 555 maleimide (donor) on C344 (E344C)
notes: Cdc12, S. cerevisiae mitotic septin, Cys-less variant; Cdc3, S. cerevisiae mitotic septin, Cys-less variant; Cdc10, S. cerevisiae mitotic septin, Cys-less variant; also called Shs1 ΔCTE^AF555; source: E. coli NiCo21 (DE3), subunits co-expressed, purified (IMAC, chitin-agarose flow-through, SEC), maleimide dye-labelled; not shown: His6, N-terminal, kept; copies: 2 + 2 + 2 + 2
- Kd [3]: 30.4 nM

B3: Cdc11(Δα0 E294C)-capped, otherwise Cys-less septin hetero-octamer (complex, S. cerevisiae)
chain 1: MRGITFTVMIVGQSGSGRSTFINTLFGQQVVDTSTTILLPTDTSTEIDLQLREETVELEDDEGVKIQLNIIDTPGFGDSLDNSPSFEIISDYIRHQYDEILLEESRVRRNPRFKDGRVHAALYLINPTGHGLKEIDVEFIRQLGSLVNIIPVISKSDSLTRDELKLNKKLIMEDIDRWNLPIYNFPFDEDEISDEDYETNMYLRTLLPFAIIGSNEVYEMGGDVGTIRGRKYPWGILDVEDSSISDFVILRNALLISHLHDLKNYTHEILYERYRTCALSGESVAAESIRPNLTKLNGSSSSSTTTRRNTNPFKQSNNINNDVLNPASDMHGQSTGENNETYMTREEQIRLEEERLKAFEERVQQELLLKRQELLQREKELREIEARLEKEAKIKQEE
chain 2: B2 chain 2
chain 3: B2 chain 3
chain 4: B2 chain 4
modifications: Alexa Fluor 555 maleimide (donor) or Alexa Fluor 647 maleimide (acceptor) on C294 (E294C)
notes: Cdc12, S. cerevisiae mitotic septin, Cys-less variant; Cdc3, S. cerevisiae mitotic septin, Cys-less variant; Cdc10, S. cerevisiae mitotic septin, Cys-less variant; also called Cdc11 Δα0^AF555; Cdc11 Δα0^AF647; source: E. coli NiCo21 (DE3), subunits co-expressed, purified (IMAC, chitin-agarose flow-through, SEC), maleimide dye-labelled; not shown: His6, N-terminal, kept; copies: 2 + 2 + 2 + 2
- Kd [4]: 19.5 nM
- Kd [5]: 9.89 nM
- Kd [6]: 8.13 nM
- Kd [7]: 33.2 nM
